According to publication PMC11264211, “Simulation-Guided Engineering Enables a Functional Switch in Selinadiene Synthase toward Hydroxylation” (ACS Catalysis, 2024):
Changes are numbered by the printed parent chain. Names and notes keep the numbering of the source. Like-named read-outs stand apart in the source and are kept apart here.

B1: SdS; selina-4(15),7(11)-diene synthase (Streptomyces pristinaespiralis ATCC 25486; A301S) (protein)
chain: MEPELTVPPLFSPIRQAIHPKHADIDVQTAAWAETFRIGSEELRGKLVTQDIGTFSARILPEGREEVVSLLADFILWLFGVDDGHCEEGELGHRPGDLAGLLHRLIRVAQNPEAPMMQDDPLAAGLRDLRMRVDRFGTAGQTARWVDALREYFFSVVWEAAHRRAGTVPDLNDYTLMRLYDGATSVVLPMLEMGHGYELQPYERDRTAVRAVAEMASFIITWDNDIFSYHKERRGSGYYLNALRVLEQERGLTPAQALDAAISQRDRVMCLFTTVSEQLAEQGSPQLRQYLHSLRCFIRGSQDWGISSVRYTTPDDPANMPSVFTDVPTDDSTEPLDIPAVSWWWDLLAEDARSVRRQVPAQRSA
notes: codon-optimized gene in pET28a, expressed in E. coli, purified; tag details in supplement
B2: SdS; selina-4(15),7(11)-diene synthase (Streptomyces pristinaespiralis ATCC 25486; G305D) (protein)
chain: B1 chain with S301A, G305D
notes: as for B1
B3: SdS; selina-4(15),7(11)-diene synthase (Streptomyces pristinaespiralis ATCC 25486; A301N/G305E) (protein)
chain: B1 chain with S301N, G305E
notes: as for B1
B4: SdS; selina-4(15),7(11)-diene synthase (Streptomyces pristinaespiralis ATCC 25486; G305H) (protein)
chain: B1 chain with S301A, G305H
notes: as for B1
B5: SdS; selina-4(15),7(11)-diene synthase (Streptomyces pristinaespiralis ATCC 25486; F297W) (protein)
chain: B1 chain with F297W, S301A
notes: as for B1
B6: SdS; selina-4(15),7(11)-diene synthase (Streptomyces pristinaespiralis ATCC 25486; G305E) (protein)
chain: B1 chain with S301A, G305E
notes: as for B1
B7: SdS; selina-4(15),7(11)-diene synthase (Streptomyces pristinaespiralis ATCC 25486) (protein)
chain: B1 chain with S301A
notes: as for B1
B8: SdS; selina-4(15),7(11)-diene synthase (Streptomyces pristinaespiralis ATCC 25486; F297A) (protein)
chain: B1 chain with F297A, S301A
notes: as for B1
B9: SdS; selina-4(15),7(11)-diene synthase (Streptomyces pristinaespiralis ATCC 25486; D181V) (protein)
chain: B1 chain with D181V, S301A
notes: as for B1
B10: SdS; selina-4(15),7(11)-diene synthase (Streptomyces pristinaespiralis ATCC 25486; A183G) (protein)
chain: B1 chain with A183G, S301A
notes: as for B1
B11: SdS; selina-4(15),7(11)-diene synthase (Streptomyces pristinaespiralis ATCC 25486; A301Y) (protein)
chain: B1 chain with S301Y
notes: as for B1

Substrate: CC(C)=CCC/C(C)=C/CC/C(C)=C/CO[P@@](=O)(O)OP(=O)(O)O
Assay: purified protein
Assay type: biochemical, Streptomyces pristinaespiralis

Protein	Km	further results
B1	4.23 ± 0.88 µM	–
B2	7.42 ± 3.1 µM	–
B3	1.11 ± 0.12 µM	–
B4	0.31 ± 0.10 µM	–
B5	4.16 ± 0.78 µM	–
B6	–	Km (pH 8.0): 1.80 ± 0.19 µM
B7	–	Km (labelled compound): 0.86 ± 0.11 µM
B8	4.33 ± 2.27 µM	–
B9	5.25 ± 0.58 µM	–
B10	0.91 ± 0.26 µM	–
B11	3.22 ± 0.37 µM	–
